Non-standard residues stand in square brackets, D forms with d. No end group written: not given here. pY = N[C@@H](Cc1ccc(OP(=O)(O)O)cc1)C(=O)O

The target in assay [1] is T1, PTB domain of Shc (human).
T1 sequence (P29353 whole entry, looked up): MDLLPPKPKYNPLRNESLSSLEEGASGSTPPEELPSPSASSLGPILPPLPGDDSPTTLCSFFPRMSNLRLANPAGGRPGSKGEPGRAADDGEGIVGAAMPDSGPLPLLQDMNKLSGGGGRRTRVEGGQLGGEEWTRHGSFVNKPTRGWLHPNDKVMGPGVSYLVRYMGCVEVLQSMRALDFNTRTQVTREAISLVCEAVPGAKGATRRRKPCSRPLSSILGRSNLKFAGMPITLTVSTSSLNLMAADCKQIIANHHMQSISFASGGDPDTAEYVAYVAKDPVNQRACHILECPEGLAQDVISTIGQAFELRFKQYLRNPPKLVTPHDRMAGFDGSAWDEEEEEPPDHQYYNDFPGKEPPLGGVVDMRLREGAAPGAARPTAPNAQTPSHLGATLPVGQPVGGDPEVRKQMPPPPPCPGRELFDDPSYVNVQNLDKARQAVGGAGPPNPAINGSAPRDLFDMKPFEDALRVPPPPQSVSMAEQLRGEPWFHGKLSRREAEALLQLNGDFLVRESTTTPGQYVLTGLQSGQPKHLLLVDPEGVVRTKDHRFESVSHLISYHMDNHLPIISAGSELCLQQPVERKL
The assay is described as follows: peptide or protein array.

Assay [2] deals with T2, core domain of Signal Transducer and Activator of Transcription 1 (STAT1) (human).
T2 chain: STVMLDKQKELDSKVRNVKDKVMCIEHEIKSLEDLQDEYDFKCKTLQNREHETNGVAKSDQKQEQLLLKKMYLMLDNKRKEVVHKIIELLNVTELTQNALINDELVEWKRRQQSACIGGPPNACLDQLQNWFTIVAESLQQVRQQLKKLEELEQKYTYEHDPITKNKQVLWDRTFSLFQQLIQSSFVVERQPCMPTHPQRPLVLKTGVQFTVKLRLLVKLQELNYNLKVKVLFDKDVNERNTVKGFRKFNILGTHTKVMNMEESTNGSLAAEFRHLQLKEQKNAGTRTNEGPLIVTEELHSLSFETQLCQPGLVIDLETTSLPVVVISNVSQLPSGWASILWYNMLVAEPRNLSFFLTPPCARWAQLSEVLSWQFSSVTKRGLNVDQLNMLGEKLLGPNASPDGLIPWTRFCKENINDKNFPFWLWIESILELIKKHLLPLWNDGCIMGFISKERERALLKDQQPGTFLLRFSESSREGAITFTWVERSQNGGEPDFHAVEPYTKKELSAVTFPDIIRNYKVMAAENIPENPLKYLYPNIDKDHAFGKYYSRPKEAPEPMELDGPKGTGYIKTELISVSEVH
The assay is described as follows: peptide or protein array.

B1: ErbB4-1188 phosphopeptide (peptide)
peptide: {5(6)‑TAMRA}-DLQALDNPE[pY]HNASNGPD
As to B1, in assay [1], the Kd was less than 1 µM.

B2: ErbB4-1128 phosphopeptide (peptide)
peptide: {5(6)‑TAMRA}-VQEDSSTQR[pY]SADPTVFD
B2: the Kd in assay [2] worked out at 2.06 µM.

B3: ErbB4-1242 phosphopeptide (peptide)
peptide: {5(6)‑TAMRA}-AKKAFDNPD[pY]WNHSLPPD
As to B3, the Kd in assay [1] was less than 1 µM.

B4: ErbB4-1035 phosphopeptide (peptide)
peptide: {5(6)‑TAMRA}-QAFNIPPPI[pY]TSRARIDD
As to B4, binding in assay [2] was characterised by a dissociation constant (Kd) of 1.55 µM.

What is called Kd is a measure of binding affinity in units of concentration.
